Data on 72 sequences can be found in the supplement of paper PMC10567573.

± gives the standard deviation.

A short description of this data set: protein stability index of a GFP-peptide fusion (GPS, HEK-293T) (PSI 1-6); higher = more stable.
Where [1] appears, read: treatment: DMSO, c terminus: a fixed tail appended.
[2] abbreviates: treatment: MLN4924 1 uM, 8 h, c terminus: a fixed tail appended.
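Also: 24-mer peptide tiles fused after GFP, lentivirally expressed, FACS-sorted into six equal bins by GFP/DsRed ratio, decoded by Illumina sequencing, PSI is the read-weighted mean bin number.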

On to MIVDLLSEKKTISFQGCMAQLFMD [OR4A15], for which the protein stability index is, setting by setting: under setting [1], 2.74 ± 0.52; under setting [2], 2.42 ± 0.46.

With KSVQGTGLAFIAFTEAMTHFPASP [SLC6A17], the protein stability index amounted to 2.19 ± 0.49 under setting [1] and 2.22 ± 0.12 under setting [2]. For RELRKPEEPENGEPTAAATARRSK [PWWP2B], the protein stability index under setting [1] was determined as 5.54 ± 0.16 and the protein stability index under setting [2] worked out at 5.51 ± 0.35. For the sequence NQHCLDTAFNFFKMAVSRHLTRGR [BRF1], the protein stability index is, setting by setting: under setting [1], 2.19 ± 0.12; under setting [2], 2.25 ± 0.22. With CHHLPVIRQLATSGRFIVIIPRTV [SMG5], the protein stability index was determined as 2.52 ± 0.6 under setting [1] and 2.56 ± 0.33 under setting [2].

With YISHRELGDCMRTLGYMPTEMELL [CABP4], the protein stability index is 2.27 ± 0.34 under setting [1] and 2.48 ± 0.43 under setting [2]. As for LSALLQFGVTYLEDYSAEYIIQQG [BCL2L13], the protein stability index reads like this: under setting [1], 2.9 ± 0.42; under setting [2], 2.43 ± 0.55. The sequence HERGLKLHQTIYNQACKLLSDDYE [INTS4] yielded a protein stability index under setting [1] of 3.18 ± 0.32 and a protein stability index under setting [2] of 3.47 ± 0.47. For the sequence ASSGGAGAAVGTGSSYPTTTISYL [JUNB], the protein stability index reads like this: under setting [1], 2.8 ± 0.34; under setting [2], 2.79 ± 0.39. The matching figures for LFLRCSLRHKDEEEEDDDDIHITA [DRICH1]: 3.03 ± 0.35 and 3.23 ± 0.28. In the case of IEANFPRRVLPCIPSEEWPNPPTL [FAF2], the protein stability index runs as follows: under setting [1], 2.9 ± 0.28; under setting [2], 3.05 ± 0.22. AGPGGGAERRRAGRLLLTLPLLRQ [ESRRA]: the protein stability index runs as follows: under setting [1], 2.53 ± 0.29; under setting [2], 2.84 ± 0.21. ACYAGAAPAPSQVKSKAKKTVDKH [CEBPB] showed a protein stability index under setting [1] of 4.95 ± 0.33 and a protein stability index under setting [2] of 5.09 ± 0.39. The matching figures for RPDRSSQGGSLPSEEKGHPQEESE [CHGB]: 5.75 ± 0.27 and 5.48 ± 0.38. Take NSHFSLNVKTLKDGKPFPELVLEQ [PCDHGC5]: the protein stability index under setting [1] turned out to be 3.42 ± 0.18 and the protein stability index under setting [2] amounted to 3.76 ± 0.27. In the case of GCLENMPEADCIPKEQLSTSFQWV [PLK2], the protein stability index runs as follows: under setting [1], 3.57 ± 0.2; under setting [2], 3.45 ± 0.36. For AGEFTGWEKVGSGGFGQVYKVRHV [RIPK4] the same measures were 2.46 ± 0.61 and 2.25 ± 0.29. Regarding NSEVYLPNINKISMQAVLDYLYTK [RHOBTB1], the protein stability index stood at 2.17 ± 0.29 under setting [1] and 2.35 ± 0.16 under setting [2]. With SFPPSLSSSSSSSPTSGSPRGSHS [LURAP1L], the protein stability index by setting is: under setting [1], 4.96 ± 0.2; under setting [2], 5.01 ± 0.16. For FQEAMTHLQHKLICTRKPEEIRGG [TENT5D], the protein stability index is, setting by setting: under setting [1], 3.05 ± 0.17; under setting [2], 3.29 ± 0.41. For the sequence VMSEGLGMRYAFIGPLETMHLNAE [CRYL1], the protein stability index by setting is: under setting [1], 2.05 ± 0.23; under setting [2], 2.05 ± 0.4. The matching figures for FWRDWEDYAHGFGNISGEFWLGNE [TNXB]: 2.78 ± 0.9 and 2.46 ± 0.51. For GISGTTTKKGDLQWNAGEKKLTGG [SNAP91], the protein stability index runs as follows: under setting [1], 4.43 ± 0.077; under setting [2], 4.86 ± 0.41. RSNVDFLETPELTSTMLVPASWWI [NECAB1]: the protein stability index runs as follows: under setting [1], 2.21 ± 0.43; under setting [2], 2.23 ± 0.48. Regarding KRYAGREEHWVGLKKEPGHPWKWS [CD69], the protein stability index is 2.76 ± 0.22 under setting [1] and 2.83 ± 0.2 under setting [2].

Consider QPSGMKEGVKRYEQEHAAIQDKLF [CHCHD6], for which the protein stability index runs as follows: under setting [1], 4.55 ± 0.12; under setting [2], 4.14 ± 0.21. For the sequence VAEQVGIDKGDIPDLTQAPSSLME [SNAP91], the protein stability index reads like this: under setting [1], 4.97 ± 0.38; under setting [2], 5.03 ± 0.23. TSVDHDRAPVVGVRVNVLLSRYLI [DLC1] gave a protein stability index under setting [2] of 3.12 ± 1.8. With EKVNEGKYRSYEEFKADAQLLLHN [ZMYND11], the protein stability index was 4.1 ± 0.13 under setting [1] and 3.79 ± 0.28 under setting [2]. For AWEKLLAAFPNLANLSRTQLLHLG [KLHDC10], the protein stability index turned out to be 2.06 ± 0.27 under setting [1] and 2.1 ± 0.11 under setting [2].

For KILAEAAKLVPMGFTTATEFHQRR [RAD51], the protein stability index was found to be 2.56 ± 0.23 under setting [1] and 2.7 ± 0.52 under setting [2]. With LLKPHSYGRFIRWLNKEKGIFKIE [SPDEF], the protein stability index came out at 2.49 ± 0.66 under setting [1] and 2.4 ± 0.46 under setting [2]. Consider LPYPKDVYSVSVDQKERCIIVRTT [DPCD], for which the protein stability index was 2.21 ± 0.22 under setting [1] and 2.18 ± 0.22 under setting [2]. Regarding SDVIEYAKQKLDFFIRTSDSFDKF [PCMTD2], the protein stability index reads like this: under setting [1], 2.36 ± 0.22; under setting [2], 2.48 ± 0.19. Turning to HTETKTITYESSQVDPGTDLEPGV [EPB41L3], the protein stability index runs as follows: under setting [1], 5.48 ± 0.17; under setting [2], 5.37 ± 0.25. As for AEFQSLFSLLEELKEGMLMKIKQD [FSD1], the protein stability index is, setting by setting: under setting [1], 2.21 ± 0.36; under setting [2], 2.33 ± 0.2. As for DCPMDSSSSRDTDWVVVKEPVIKV [PI4K2A], the protein stability index reads like this: under setting [1], 3.6 ± 0.4; under setting [2], 4 ± 0.53. As for VGGKIVGSLCAIAGVLTIALPVPV [KCNA4], the protein stability index reads like this: under setting [1], 3.78 ± 0.78; under setting [2], 2.76 ± 0.46. Regarding AKVGPGLPDGCQPLQLLREMRQAL [CBY2], the protein stability index is, setting by setting: under setting [1], 2.73 ± 0.57; under setting [2], 2.82 ± 0.33. The matching figures for AQRQACMYASSAPPSEPVPSLEDI [TBX5]: 4.92 ± 0.14 and 4.96 ± 0.077. The matching figures for HQAQLISKIPHILKEMYDADLLEE [EIF5]: 2.94 ± 0.24 and 3.27 ± 0.59.

Take GDIQELYDTTLALGHAAAFSDDCD [GLT8D2]: the protein stability index by setting is: under setting [1], 5.24 ± 0.12; under setting [2], 5.23 ± 0.14. For DTCPEVGFFDVLGNDRRREWAALG [ACBD3] the same measures were 3.09 ± 0.4 and 3.76 ± 0.14. Take CTVLRDARIRSHSWLESCIVGWRC [GMPPB]: the protein stability index by setting is: under setting [1], 2.42 ± 0.39; under setting [2], 1.93 ± 0.43.

Sequence AILSLDQIKAIRGSNEYTEGPSVV [SPRY1] returned a protein stability index under setting [1] of 3 ± 0.072 and a protein stability index under setting [2] of 2.98 ± 0.3. Take TPATPATLSASSSAGGSRTPAMSS [TFE3]: the protein stability index reads like this: under setting [1], 4.99 ± 0.23; under setting [2], 4.95 ± 0.3. The sequence KIQLSDSEAKSHSSADDASAWSNI [FAN1] showed a protein stability index under setting [1] of 4.757 ± 0.032 and a protein stability index under setting [2] of 4.74 ± 0.11. For RTPLMYCVLADRLDCADALLKAGA [INVS], the protein stability index stood at 2.16 ± 0.35 under setting [1] and 2.08 ± 0.15 under setting [2].

Sequence ELIFSARVLDGKEAKAVGLISHVL [AUH] yielded a protein stability index under setting [1] of 2.58 ± 0.92 and a protein stability index under setting [2] of 2.18 ± 0.25.

YVRMVFLALYVLFLADEEFDVVVC [ALG2] gave a protein stability index under setting [1] of 3.1 ± 0.71 and a protein stability index under setting [2] of 2.93 ± 1. As to CVLVDTGRPIPGTSTRYEQPKCDN [SMOC2], the protein stability index is, setting by setting: under setting [1], 3.79 ± 0.31; under setting [2], 3.77 ± 0.22.

GASLRLAVEDGLQQFKQYSRHVTT [M1AP] had a protein stability index under setting [1] of 3.06 ± 0.15 and a protein stability index under setting [2] of 3.19 ± 0.43. KKTSITQQPSKHRTDEELQPPTTT [PLK2]: the protein stability index was 5.27 ± 0.2 under setting [1] and 5.26 ± 0.16 under setting [2]. The matching figures for LLPVQVVTEHPLELIRVEVEILDL [PCDHGC5]: 3.02 ± 0.66 and 3.05 ± 0.85. In the case of QGIYEEYEDIRRENPVGTFHCSMS [PTPN9], the protein stability index was determined as 3.84 ± 0.28 under setting [1] and 3.98 ± 0.26 under setting [2]. The matching figures for AYNHRTDLFKSFPGPMDWVPRYTG [ADAMTS4]: 2.89 ± 0.14 and 2.82 ± 0.11. The matching figures for GTAPLNQETAEFFLSLDIPIGELY [ACSBG2]: 1.89 ± 0.26 and 2.32 ± 0.26. On to TDLVQFLLFKYQMKEPITKAEILE [MAGEA10], for which the protein stability index reads like this: under setting [1], 2.48 ± 0.43; under setting [2], 2.2 ± 0.23. DLVPKQAIQVQEADEAGWGGSGG [DLX1]: the protein stability index runs as follows: (treatment: DMSO, c terminus: native) 2.96 ± 0.75; (treatment: MLN4924 1 uM, 8 h, c terminus: native) 3.09 ± 0.087. For the sequence DPSNRSFFSEIISSVSDVKFSHSG [PPP2R2C], the protein stability index is 3.43 ± 0.25 under setting [1] and 3.44 ± 0.29 under setting [2]. As for VVDIFQTVKMLRTQRPAMVQTEDQ [PTPRD], the protein stability index runs as follows: under setting [1], 3.23 ± 0.32; under setting [2], 3.06 ± 0.27. The matching figures for LSRHSKGLQILGHTLRASMRELGL [KCNA4]: 2.25 ± 0.21 and 2.25 ± 0.024. The matching figures for RRRPRQKEAGLSQSHDDLSNATAT [C2CD2L]: 5.23 ± 0.19 and 5.26 ± 0.24.

For the sequence PQALATRALPCPAHVVFRYQGVRM [FCHSD1], the protein stability index reads like this: under setting [1], 2.69 ± 0.2; under setting [2], 2.69 ± 0.22. Take EIDTPDKFGRTCLHAAAAGGNVEC [ANKRD44]: the protein stability index worked out at 4.24 ± 0.16 under setting [1] and 4.37 ± 0.23 under setting [2]. Consider GWSLGRWTHDGIDINNNFPDLNTL [CPXM2], for which the protein stability index runs as follows: under setting [1], 2.01 ± 0.085; under setting [2], 2.34 ± 0.091.

As to NSRFQMLFTSFQEPPCEGNTFFCH [NETO1], the protein stability index by setting is: under setting [1], 2.23 ± 0.45; under setting [2], 2.23 ± 0.11. For LLQNEFVGFMWRQRGRVISLWERL [MCOLN1] the same measures were 2.7 ± 0.19 and 2.68 ± 0.26.

As to KAVLENALRNFACLTTGDVIAINY [UFD1], the protein stability index was 2.94 ± 1.7 under setting [1] and 2.3 ± 1 under setting [2]. As for KPYNCLQCLDKTNESALVKEKELS [MTUS2], the protein stability index is, setting by setting: under setting [1], 4.74 ± 0.14; under setting [2], 4.59 ± 0.23. For LGKLIPRHQSIFKSNGFFHGISIP [CDKL4] the same measures were 2.17 ± 0.052 and 2.23 ± 0.41. Consider ARRRVCHTEDFQKEEGTVNGASWH [CPXM2], for which the protein stability index is, setting by setting: under setting [1], 4.57 ± 0.16; under setting [2], 4.71 ± 0.84.
